In the supplement of paper PMC10724198:
± gives the standard deviation of the averaged measurements.

tested on: Saccharomyces cerevisiae; assay: protein stability index of tFT-peptide fusion (C-terminal peptide) (PSI (0-1 scale)); higher = more stable (slower turnover); conditions: genetic background: wild type; temperature: 30 C
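Note: PSI is a weighted mean of sequencing reads over stability bins, variants kept only with over 10 reads, mCherry proximal and sfGFP distal, peptide attached via GGGS linker.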

| Sequence | protein stability index |
| --- | --- |
| LRAVCDLTGSRV | 0.68 ± 0.072 |
| LRCCGGCGVCAL | 0.686 ± 0.03 |
| LRCLTIILYSMV | 0.549 ± 0.033 |
| LRCPLPFFSAFF | 0.704 ± 0.11 |
| LRDIEEIHRRGA | 0.782 ± 0.013 |
| LRDLLVFCDLFR | 0.695 ± 0.0082 |
| LRDQEYAMRPPC | 0.693 ± 0.08 |
| LRDWCMLGELAR | 0.742 ± 0.014 |
| LREENKKSETKR | 0.705 ± 0.027 |
| LRFRTVTRSGLR | 0.626 ± 0.048 |
| LRGDGGLFGDSG | 0.655 ± 0.035 |
| LRGLAVWCGYFS | 0.619 ± 0.02 |
| LRGRRPFSQRAT | 0.662 ± 0.034 |
| LRGRYNDVRHGK | 0.708 ± 0.053 |
| LRHSCSTYRIFS | 0.683 ± 0.028 |
| LRIGVEAGRAHR | 0.648 ± 0.033 |
| LRIRSTSSPPRP | 0.74 ± 0.015 |
| LRKVIGVSFCLA | 0.542 ± 0.049 |
| LRLPPPPPLPHV | 0.704 ± 0.033 |
| LRMWFGLMRPDA | 0.66 ± 0.034 |
| LRNNKIKLIQKK | 0.7809 ± 0.0034 |
| LRNWIGGTLGGG | 0.7 ± 0.0095 |
| LRPASPVGRQTQ | 0.691 ± 0.04 |
| LRPFLFSALPLT | 0.672 ± 0.01 |
| LRPLKVSGGGRG | 0.685 ± 0.045 |
| LRPSPGYRLGIH | 0.791 ± 0.1 |

| Sequence | protein stability index |
| --- | --- |
| LRPVPLCPAALL | 0.695 ± 0.037 |
| LRRPSPPTPSPP | 0.86 ± 0.2 |
| LRRVKSGPYFRF | 0.684 ± 0.074 |
| LRSLLYDKVISL | 0.676 ± 0.055 |
| LRSMSPPPHSLA | 0.688 ± 0.058 |
| LRTHPPGPLPLA | 0.654 ± 0.12 |
| LRTLALSYTSLT | 0.664 ± 0.035 |
| LRVRTLGLPLVY | 0.569 ± 0.026 |
| LRVYCVIPLSGM | 0.526 ± 0.049 |
| LSARVSYRITLR | 0.599 ± 0.019 |
| LSASAWCSSLTR | 0.714 ± 0.047 |
| LSCALCLLGFRC | 0.647 ± 0.029 |
| LSCFVFRLSWFL | 0.556 ± 0.11 |
| LSCLFYSYSVSS | 0.607 ± 0.068 |
| LSDFFLDREGRV | 0.654 ± 0.034 |
| LSDIDLLGLPIL | 0.66 ± 0.085 |
| LSEDGGHRWHRI | 0.796 ± 0.087 |
| LSELCFAPRSPE | 0.706 ± 0.046 |
| LSFAVFIDFFTA | 0.5223 ± 0.003 |
| LSFFLFLLSPFY | 0.582 ± 0.028 |
| LSFFYLLSSYFL | 0.62 ± 0.019 |
| LSFLSDFCLWVL | 0.659 ± 0.053 |
| LSFPAPLPLFNT | 0.767 ± 0.037 |
| LSFSSLYFPSLC | 0.651 ± 0.081 |
| LSFTSVLGQIPV | 0.705 ± 0.039 |
| LSGVSGALVFVG | 0.676 ± 0.047 |

| Sequence | protein stability index |
| --- | --- |
| LSLLFLSLSLLR | 0.61 ± 0.042 |
| LSLPHPSPLSFS | 0.718 ± 0.038 |
| LSLPSPRPPPSP | 0.713 ± 0.063 |
| LSLSVNLPLFPT | 0.648 ± 0.067 |
| LSNFLFYGLCPG | 0.651 ± 0.081 |
| LSNLQPPISVPL | 0.6473 ± 0.006 |
| LSPDSLGVLVEY | 0.6272 ± 0.0058 |
| LSPGCLFLLPFL | 0.701 ± 0.066 |
| LSPLLSLPRCPT | 0.7 ± 0.04 |
| LSPLPHGLPFST | 0.736 ± 0.015 |
| LSPPLPRAPHLS | 0.678 ± 0.077 |
| LSPPQRISLIPY | 0.659 ± 0.03 |
| LSPPRSAPPPPR | 0.699 ± 0.014 |
| LSPSDSPSPPAS | 0.6499 ± 0.0016 |
| LSPTRPATRSPP | 0.6826 ± 0.0014 |
| LSQPRDGMRWCA | 0.6191 ± 0.0035 |
| LSRMTNFKEKEG | 0.669 ± 0.03 |
| LSSCVRVSFLFF | 0.588 ± 0.028 |
| LSSPPHVRSSPF | 0.695 ± 0.029 |
| LSSPPSRPFAPS | 0.721 ± 0.089 |
| LSSPSPSCSLPP | 0.701 ± 0.077 |
| LSSPTHTPHPPS | 0.701 ± 0.0097 |
| LSSSWDLTHFDC | 0.714 ± 0.033 |
| LSTPASVLLSSG | 0.682 ± 0.011 |
| LSTPPDLNPLIF | 0.654 ± 0.034 |
| LSVEAGRGELLW | 0.69 ± 0.067 |

| Sequence | protein stability index |
| --- | --- |
| LSVGPIWFSCQA | 0.605 ± 0.023 |
| LSVLHATFGRCD | 0.645 ± 0.017 |
| LSVQVLSLRPRA | 0.688 ± 0.036 |
| LSYCLLALFFPL | 0.501 ± 0.009 |
| LTAGGGEACGPP | 0.625 ± 0.015 |
| LTFFRSSPPRPY | 0.739 ± 0.031 |
| LTGHVGNMWDAA | 0.86 ± 0.025 |
| LTILEPYFLLGP | 0.732 ± 0.21 |
| LTILRSPLPSLS | 0.701 ± 0.019 |
| LTKTAHVGQLWL | 0.708 ± 0.025 |
| LTLLFLHPFPST | 0.753 ± 0.1 |
| LTNISKIKILRY | 0.653 ± 0.032 |
| LTRPHPPPVRTP | 0.711 ± 0.083 |
| LTSDGGLSGCSL | 0.67 ± 0.029 |
| LTWVVNSGKGRC | 0.918 ± 0.087 |
| LTYVQPTKGTLG | 0.654 ± 0.05 |
| LVCYHLSLPSVR | 0.675 ± 0.052 |
| LVDHLEMSTTSL | 0.724 ± 0.017 |
| LVFLGLCGTDFV | 0.676 ± 0.12 |
| LVFRSGWVSLIG | 0.641 ± 0.044 |
| LVGGRGSRSVEA | 0.739 ± 0.12 |
| LVGLCSVFPSLV | 0.716 ± 0.008 |
| LVHPPPPLLPPA | 0.6 ± 0.018 |
